Patent publication US12569538B2, “DPEP-1 binding compositions and methods of use” (Arch Biopartners, Inc., priority 2015, dated 2026)

Key:
[1] = target: T1, renal rat membrane dipeptidase (DPEP-1) (Rattus norvegicus, UniProt P31430); assay: Peptide binding to Cos-7 cells transfected with rat DPEP-1, immunofluorescence microscopy; details: rat DPEP-1 transfected Cos-7 cells; fluorescently conjugated peptide on ice 30 minutes
T1 construct: expressed in transfected cells; host or cells: Cos-7
Procedure: Cos-7 cells were transiently transfected with […] of renal rat membrane dipeptidase (DPEP-1) plasmid using lipofectamine 2000 (Invitrogen) reagent. 48 hours after transfection, media was removed and cells were washed with PBS. Cells were incubated with LSALT conjugated with Alexa-488 (Green), GFE-1 peptide conjugated with Alexa-568 (Red) or control peptide conjugated with Alexa-488 (Green) on ice for 30 minutes. Cells were washed and fixed using 4% paraformaldehyde and immunofluorescence microscopy was performed to assess binding. Shown are representative photomicrographs of each experimental condition (n=2).

Human DPEP2 = target: T2, Human DPEP2 (Homo sapiens, UniProt Q9H4A9); assay: Binding of Alexa-488 conjugated peptide to Cos-1 cells transfected with human DPEP2
T2 construct: expressed in transfected cells; host or cells: Cos-1
Procedure: (§1) Cos-1 cells were transiently transfected with either […] of human DPEP-1, DPEP2, or DPEP3 gene using lipofectamine 2000 (Invitrogen) reagent in OptiMEM medium. 24 hours after transfection, DPEP-1, DPEP2, or DPEP3 expressing cells were re-seeded on collagen coated (neutralized) wells in 24 well plates and allowed to grow for 24 hours at 37º° C. 24 hours after seeding, media was removed and cells were washed with PBS. Cells were blocked with FBS/NBSA/Tween in PBS for 30 minutes on ice. Cells were then washed with PBS and incubated with LSALT or GFE-1, conjugated with Alexa-488 (green). After incubation, cells were washed with PBS and stained with DAPI for 5 minutes on ice. Cells were then washed with PBS and fixed using 4% paraformaldehyde and immunofluorescence microscopy was performed to assess binding. Representative photomicrographs are shown for each experimental condition (n=3) in FIG. 6A. Proteins from DPEP-1. DPEP2 and DPEP3 transfected cells were isolated after 48 hours using octyl-glucoside/RIPA lysis buffer and western blot analysis was performed to assess DPEP-1, DPEP2 and DPEP3 protein expression using specific antibodies; DPEP-1 antibody (Sigma), DPEP2 (Abcam) and DPEP3 (Santacruz). Blots were stripped and reprobed with an anti-P-actin.

Human DPEP-3 = target: T3, Human DPEP-3 (Homo sapiens, UniProt Q9H4B8); assay: Binding of Alexa-488 conjugated peptide to Cos-1 cells transfected with human DPEP3
T3 construct: expressed in transfected cells; host or cells: Cos-1
T3 sequence (Q9H4B8 36-463): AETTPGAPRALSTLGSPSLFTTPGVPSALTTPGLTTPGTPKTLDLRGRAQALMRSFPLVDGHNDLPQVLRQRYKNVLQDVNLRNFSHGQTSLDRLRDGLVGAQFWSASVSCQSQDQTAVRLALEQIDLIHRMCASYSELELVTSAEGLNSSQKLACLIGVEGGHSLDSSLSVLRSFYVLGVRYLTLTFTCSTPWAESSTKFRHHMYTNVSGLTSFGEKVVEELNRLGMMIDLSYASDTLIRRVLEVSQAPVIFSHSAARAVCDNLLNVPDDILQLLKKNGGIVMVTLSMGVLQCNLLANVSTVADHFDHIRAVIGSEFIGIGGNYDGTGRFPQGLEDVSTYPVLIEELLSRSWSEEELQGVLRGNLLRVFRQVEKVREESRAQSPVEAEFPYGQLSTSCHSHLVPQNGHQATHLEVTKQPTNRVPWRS
Procedure: as §1

DPEP-1 = details: cited from earlier work
[2] = test system: neutrophil adhesion in the hepatic sinusoids; assay: Neutrophil adhesion in hepatic sinusoids after LPS, intravital microscopy; assay type: in vivo, LysMeGFP mice; details: for neutrophil adhesion in the hepatic sinusoids in the presence of LPS: 1 mM peptide intravenous 5 minutes after 0.5 mg/kg LPS intraperitoneal, liver imaged after 3 hours
Procedure: Six to ten week old LysMeGFP mice were injected with 1 mM dose of LSALT or GFE-1 peptides (intravenous) 5 minutes after the injection of 0.5 mg/kg of lipopolysaccharide (intraperitoneal). After 3 hours, animals were injected with ketamine and xylazine to provide general anesthesia. Fluorescently conjugated F4/80 and PECAM-1 antibodies were then administered via jugular vein cannulation and intravital spinning disk confocal microscopy was performed. The livers were imaged for an hour and the number of neutrophils were counted at different time points. Neutrophils which were stationary for >30 seconds in the liver sinusoids were counted as adherent cells. Data are representative of three independent experiments. An unpaired 2-tailed student's t-test was performed comparing LSALT, GFE-1 or control treated group against the LPS treated group (*p<0.05).

[3] = test system: serum cytokines in response to LPS; assay: Plasma cytokine levels after LPS, Luminex Cytokine Arrays; assay type: in vivo, SCID mice; details: LPS 0.5 mg/kg intraperitoneal 5 minutes prior to intravenous peptide; plasma at 4 hours
Procedure: 6-8 weeks old SCID mice were given an intraperitoneal injection of LPS (0.5 mg/kg) 5 minutes prior to intravenous injection of LSALT peptide or a control peptide. 4 hours following injection of LPS, blood was collected by cardiac puncture and changes in plasma cytokine levels were assessed using Luminex Cytokine Arrays. Bar graphs show the levels of different inflammatory mediators released in the plasma in the presence or absence of LSALT peptide and control peptide.
6-8 weeks old SCID mice were given an intraperitoneal injection of LPS (0.5 mg/kg) 5 minutes prior to intravenous injection of LSALT peptide or a control peptide. 4 hours following injection of LPS, blood was collected by cardiac puncture and changes in plasma cytokine levels were assessed using Luminex Cytokine Arrays. Bar graphs show the level of the anti-inflammatory cytokine IL-10 released in the plasma in LSALT peptide or control peptide in two independent experiments.

[4] = test system: B16-F10 murine melanoma cells; assay: B16-F10 melanoma lung metastasis, syngeneic model; assay type: in vivo, C57-BL6 mice; details: 1 mM peptide intravenous 5 minutes before 100,000 B16-F10 cells; lungs harvested after 2 weeks
Procedure: 8-10 weeks old C57-BL6 mice (Charles River) were injected intravenously with 100,000 B16-F10 murine melanoma cells 5 minutes after the injection of either LSALT or GFE-1 peptide (1 mM) via intravenous tail injection. Animals were sacrificed after 2 weeks and lungs were harvested. Tissues were processed for histology as described before and bematoxylin-eosin staining was performed to assess tumor burden.

[5] = target: T4, human membrane dipeptidase (DPEP-1) (Homo sapiens, UniProt P16444); assay: Membrane dipeptidase enzyme activity assay, fluorimetric detection of D-Phe from Gly-D-Phe; assay type: biochemical; details: protein from human DPEP-1 transfected Cos-1 cells; Gly-D-Phe substrate, 37° C., 3 hours
T4 construct: expressed in transfected cells; host or cells: Cos-1 (protein lysate, octylglucoside)
T4 sequence (P16444 17-385): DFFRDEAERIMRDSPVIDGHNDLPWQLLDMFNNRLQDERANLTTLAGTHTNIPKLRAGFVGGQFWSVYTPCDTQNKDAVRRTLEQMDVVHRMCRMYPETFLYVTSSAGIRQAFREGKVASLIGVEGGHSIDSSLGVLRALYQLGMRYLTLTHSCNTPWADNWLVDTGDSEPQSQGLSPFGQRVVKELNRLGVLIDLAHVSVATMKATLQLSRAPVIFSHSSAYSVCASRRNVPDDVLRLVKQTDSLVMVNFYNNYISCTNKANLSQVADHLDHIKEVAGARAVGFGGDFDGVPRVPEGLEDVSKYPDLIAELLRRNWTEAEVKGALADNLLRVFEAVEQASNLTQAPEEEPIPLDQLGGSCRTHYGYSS
Procedure: Cos-1 cells were transiently transfected with […] of human membrane dipeptidase (DPEP-1) plasmid using lipofectamine 2000 (Invitrogen) reagent. 48 hours after transfection, media was removed and cells were washed with PBS. Proteins were isolated using octylglucoside in the absence of protease inhibitors. Membrane dipeptidase assay and the fluorimetric detection of D-Phe was performed exactly as described by Heywood and Hooper previously. In brief, proteins were first incubated with membrane dipeptidase substrate Gly-D-Phe either in the presence or absence of LSALT or GFE-1 peptide at 37° C. for 3 hours. The fluorescence signal generated from the conversion of D-Phe to […] in the presence of D-aminoacidoxidase and peroxidase was measured using a fluorescence plate reader.

tumor cell line = assay: Tumor burden in livers or lungs of animals injected with a tumor cell line; assay type: in vivo
rat DPEP-1 = target: T5, rat DPEP-1 (Rattus norvegicus, UniProt P31430); assay: Binding of Alexa-488 conjugated peptide to Cos-1 cells transfected with rat DPEP-1 (immunofluorescence); details: Cos-1 cells transiently transfected with rat DPEP-1 cDNA, 30 minutes on ice
T5 construct: expressed in transfected cells; host or cells: Cos-1
Procedure: (§2) Cos-1 cells were transiently transfected with either 3 or 5|ig of membrane dipeptidase (DPEP-1) cDNA corresponding to the rat (Shown in FIG. 5A) or human DPEP-1 (Shown in FIG. 5B) gene using lipofectamine 2000 (Invitrogen) reagent in OptiMEM medium 24 hours after transfection, DPEP-1 expressing cells were re-seeded on collagen coated (neutralized) wells in 24 well plates and allowed to grow for 24 hours at 37 °C. 24 hours after seeding, media was removed and cells were washed with PBS. Cells were blocked with FBS/NBSA/Tween in PBS for 30 minutes on ice. Cells were then washed with PBS and incubated with Alexa-488 (green) conjugated LSALT, GFE-1, control peptide or DPEP-1 antibody (1/100) (Sigma) on ice for 30 minutes. […] After incubation, cells were washed with PBS and treated with 10 mg/ml biotin transfer peptide (LSALT, GFE-1 or Control Peptide (KGAL)] for 10 minutes. Cells were then washed with PBS and biotin transfer was enabled by UV activation of the aryl azide groups for 15 minutes at 363 nm. Residual fluid was removed and monolayers were lysed either with octyl-glucoside/RIPA or 8M urea. Isolated supernatants were rotated with […] of neutr-avidin agarose beads at 4° C. for 24 hours. Beads were washed with corresponding buffers, boiled in Laemmli buffer and analyzed by western blot using a DPEP-1 specific antibody (Proteintech).

human DPEP-1 = target: T6, human DPEP-1 (Homo sapiens, UniProt P16444); assay: Binding of Alexa-488 conjugated peptide to Cos-1 cells transfected with human DPEP-1 (immunofluorescence, biotin transfer); details: Cos-1 cells transiently transfected with human DPEP-1 cDNA, 30 minutes on ice
T6 construct: expressed in transfected cells; host or cells: Cos-1
T6 sequence (P16444 17-385): T4 sequence (P16444 17-385)
Procedure: as §2

[6] = target: T1, renal rat membrane dipeptidase (DPEP-1); assay: Peptide binding to Cos-7 cells transfected with rat DPEP-1, flow cytometry; details: rat DPEP-1 transfected Cos-7 cells; Alexa-488 conjugated peptide on ice 30 minutes
Procedure: Cos-7 cells were transiently transfected with 5∧g of renal rat membrane dipeptidase (DPEP-1) plasmid using lipofectamine2000 (Invitrogen) reagent. 48 hours after transfection, cells were incubated with LSALT conjugated to Alexa-488 (green) on ice for 30 minutes. Cells were washed and flow cytometry was performed to assess binding Shown are single parameter histographs for each experimental condition (n=2).

T1 sequence (P31430 17-384): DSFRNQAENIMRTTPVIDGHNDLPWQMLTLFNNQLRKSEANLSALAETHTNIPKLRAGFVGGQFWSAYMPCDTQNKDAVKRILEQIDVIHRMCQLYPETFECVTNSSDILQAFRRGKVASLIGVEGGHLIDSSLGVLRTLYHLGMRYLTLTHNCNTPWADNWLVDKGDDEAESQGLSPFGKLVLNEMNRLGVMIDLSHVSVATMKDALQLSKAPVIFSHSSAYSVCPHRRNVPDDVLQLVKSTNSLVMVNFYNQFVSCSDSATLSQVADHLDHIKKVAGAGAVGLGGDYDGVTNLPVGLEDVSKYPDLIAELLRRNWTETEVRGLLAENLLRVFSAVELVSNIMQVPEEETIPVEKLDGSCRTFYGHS
T2 sequence (Q9H4A9 33-463): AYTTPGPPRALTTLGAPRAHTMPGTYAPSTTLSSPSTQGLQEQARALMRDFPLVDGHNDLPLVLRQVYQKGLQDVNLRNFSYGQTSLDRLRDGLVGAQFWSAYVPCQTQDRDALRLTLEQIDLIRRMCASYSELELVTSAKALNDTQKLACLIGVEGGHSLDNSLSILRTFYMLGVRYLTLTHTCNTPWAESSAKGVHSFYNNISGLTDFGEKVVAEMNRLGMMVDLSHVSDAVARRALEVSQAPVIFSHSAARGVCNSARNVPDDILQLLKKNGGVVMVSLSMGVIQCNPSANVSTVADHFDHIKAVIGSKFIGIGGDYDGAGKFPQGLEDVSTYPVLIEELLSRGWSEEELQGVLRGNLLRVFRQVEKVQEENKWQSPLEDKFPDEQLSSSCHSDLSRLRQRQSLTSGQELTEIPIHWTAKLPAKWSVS
T5 sequence (P31430 17-384): as the sequence (P31430 17-384) above

| Sequence | binding to Cos-7 cells with expression of DPEP-1 (immunofluorescence microscopy) [1] | binding to human DPEP2 in vitro (Human DPEP2) | binding to human DPEP-3 in vitro (Human DPEP-3) | DPEP-1 binding activity in lung microvasculature (DPEP-1) | neutrophil adhesion in the hepatic sinusoids in the presence of LPS [2] | levels of serum cytokines (inflammatory mediators) in response to LPS [3] | production of the anti-inflammatory mediator IL-10 in response to LPS [3] | melanoma-lung metastasis [4] | inhibition of membrane dipeptidase enzyme activity [5] | tumor burden in the livers or lungs (tumor cell line) | binding to rat DPEP-1 (rat DPEP-1) | binding to human DPEP-1 (human DPEP-1) | neutrophil recruitment to the liver ([2]; mouse model of sepsis) | binding to Cos-7 cells with expression of DPEP-1 (flow cytometry) [6] |
| --- | --- | --- | --- | --- | --- | --- | --- | --- | --- | --- | --- | --- | --- | --- |
| CGFECVRQCPERC (listed as Homo sapiens) [GFE-1, reference compound] | enhanced the binding | do not Bind | do not Bind | having DPEP-1 binding activity | inhibit neutrophil adhesion | – | – | – | – | – | – | – | – | – |
| CGFELETC (listed as Homo sapiens) [GFE-2] | – | – | – | having DPEP-1 binding activity | – | – | – | – | – | – | – | – | – | – |
| LSALTPSPSWLKYKAL (listed as Homo sapiens) | enhanced the binding | do not Bind | do not Bind | – | inhibit neutrophil adhesion | attenuates the levels | increases the production | Inhibits | does not inhibit | dramatically reduce tumor burden | Bonds | Bonds | reduced neutrophil recruitment | enhanced the binding |
